Experimental findings from PMC4232046 are described below.

In series [1] the test system is CBC (HapB/HapC/HapE core CCAAT-binding complex) (Aspergillus fumigatus). As to the kind of experiment: SPR. The settings on record: SPR Biacore T200, 25 C; 10 mM phosphate pH 7.4, 2.7 mM KCl, 137 mM NaCl, 1 mM DTT, 0.005% surfactant P20, 10 ug/ml poly(dI-dC); biotin-DNA on streptavidin CM3 …. On the technique in general: In SPR one partner is held on a chip, and binding of the other changes the refractive index at the surface.

Series [2] addresses CBC (HapB/HapC/HapE core CCAAT-binding complex);HapX(24-158) (Aspergillus fumigatus;Aspergillus fumigatus) (UniProt Q4WER3). As to the kind of experiment: SPR. The conditions noted are these: SPR Biacore T200, 25 C; 10 mM phosphate pH 7.4, 2.7 mM KCl, 137 mM NaCl, 1 mM DTT, 0.005% surfactant P20, 10 ug/ml poly(dI-dC); biotin-DNA on streptavidin CM3 ….
Series [3] concerns the target Aspergillus fumigatus core CCAAT-binding complex (HapB(230–299), HapC(40–137), HapE(47–164)) (Aspergillus fumigatus). As to the kind of experiment: SPR; Biacore T200, 25°C; biotinylated 37-bp cccA promoter duplex (full motif) on streptavidin-coated CM3 chip; CBC injected, HapX(24–158) co-injected on preformed binary CBC/DNA complexes in the steady-state phase; 10 mM phosphate pH 7.4, 2.7 mM KCl, 137 mM NaCl, 1 mM DTT, 0.005% P20, 10 μg/ml poly(dI-dC); 1:1 model with mass transport term.

In general, Kd refers to the equilibrium constant for the complex coming apart. With “AAATCCACCAATCAACGCCTCCGTGATTGTCAGCAAT (double strand) [cccAp-369-37]”, the dissociation constant (Kd) was 0.7 nM in series [1] and 1.97 nM in series [2].
In series [3], “Aspergillus fumigatus HapX(24–158) (from UniProt Q4WER3 24-158) (domain or fragment)” registered a KD on CBC-coated DNA (preformed CBC/DNA complex, 37-bp cccA promoter duplex) of 1.97 nM and a stoichiometry N (HapX chains per CBC) of 2.
